Test: soluble on expression in E. coli; label from the status in PepcDB or PDB records

Soluble on expression in E. coli, soluble:
MGSSHHHHHHSAGENLYFQGQQGDLMPQSALFTGIIPPVSTIFTADGQLDKPGTAALIDDLIKAGVDGLFFLGSGGEFSQLGAEERKAIARFAIDHVDRRVPVLIGTGGTNARETIELSQHAQQAGADGIVVINPYYWKVSEANLIRYFEQVADSVTLPVMLYNFPALTGQDLTPALVKTLADSRSNIIGIKDTIDSVAHLRSMIHTVKGAHPHFTVLCGYDDHLFNTLLLGGDGAISASGNFAPQVSVNLLKAWRDGDVAKAAGYHQTLLQIPQMYQLDTPFVNVIKEAIVLCGRPVSTHVLPPASPLDEPRKAQLKTLLQQLKLCCGRTRAPPPPPLRSGC
MGSSHHHHHHSSGLVPRGSGDPDEQYDFLFKLVLVGDASVGKTCVVQRFKTGAFSERQGSTIGVDFTMKTLEIQGKRVKLQIWDTAGQERFRTITQSYYRSANGAILAYDITKRSSFLSVPHWIEDVRKYAGSNIVQLLIGNKSDLSELREVSLAEAQSLAEHYDILCAIETSAKDSSNVEEAFLRVATELIMRHGGPLFS
MGSSHHHHHHSSGLVPRGSHMAKAPEQTVTEPVGSYARAERPQDFEGFVWRLDNDGKEALPRNFRTSADALRAPEKKFHLDAAYVPSREGMDALHISGSSAFTPAQLKNVAAKLREKTAGPIYDVDLRQESHGYLDGIPVSWYGERDWANLGKSQHEALADERHRLHAALHKTVYIAPLGKHKLPEGGEVRRVQKVQTEQEVAEAAGMRYFRIAATDHVWPTPENIDRFLAFYRTLPQDAWLHFHCEAGVGRTTAFMVMTDMLKNPSVSLKDILYRQHEIGGFYYGEFPIKTKDKDSWKTKYYREKIVMIEQFYRYVQENRADGYQTPWSVWLKSHPAKA
MGSSHHHHHHSSGLVPRGSHMASGLVPRGSHMASMPEASFFTDMLQSITDHGRQLLFSGSRNTQAAAKADLETLCEMLLSSRGEASGMALAAEILDRWGALDSEGAQKFFHMLQQKFGPDTARLDQAIEDYRTDKSSTAVIALHQAAEPRRQELLRRLNHAPNGTATLVRMRQQLLASKDRSEAYHALDADFTHLFGSWFNRGFLTLRPIDWTTPAYILEKIIQYEAVHEIAGWEELRRRLAPADRRCFAFFHPRLADEPLVFVEVALTRSVPKAIADVLDEGREQINADEATTAVFYSISNCQDGLRGISFGNFLIKQVVEDLRKDLPGLKNFVTLSPVPGFARWLAKMRTATGDRSLSEAALKTLSLLDDPNWPGSESSAADVERVLLPLAARYFLTERTPEGRPVDPVARFHLGNGARLERVNFLGDRSPKALQQAHGLMVNYLYKLDDIVANHEALAQRGEVIASPAVKSLLNQNDEGRRSGNGQQGSRAFAQLMNSTLGGGRK
MGSSHHHHHHSSGLVPRGSHMATADPYDALRRRWLGITLGTGYDPAAEPYASRLAETGERAREHRATMAPTPTSLWPGHPFDPPAGITFAYGRLWTMTEAYVQEGTGATGDPALLADILRGLDHLSATVYHPATTRYGNWWEWQIGSPRLLMDITAALYDHLGADRVAAACAAVDHFVPDAMLGAYTGTSTGANRVDLCRSVALRGVLGRAPAKIALARDALSPVFPYVTKGDGLYADGSFVQHTWVAYSGTYGQVMLDGLGRLFTLLAGSEWEVTDPGRQLVLDSVEHAYAPLIHDGLVMDTVNGRAISRGYLKSDDLHVMRSDHFHGQQLIAAMAVLAGGASNAERERWHARIKGWIERDTVTPVLTAPQFPVADLTRLHAIADAPGEAAPEPVGHHLFAAMDRAVHRRPAFTAGLAMASDRIAHYECGNGENPRGWHTGAGMLTWWANGTRADQYTDWFWPTVDWYRLPGTTVSTKRLADRAGGEWGAPKPDVRWVGGATDGEYAAVGQHLKGLGSTLEARKSWFFLDDAVVCLGAGITCADGVPVETVVDNRNLGEGGTQALVRGRHWAHLEGHGGWIVPGGALRTLREDRTGAWSDINTTSTTERRTRRWQTLWLDHGTDPAGADYVYTVMPGASRAALARRAADRHWLTVLANDDRRQAVSVPSLGLTAANFWQAGTAGPLTTTAGASVLVRRRGRTATLRVSEPPRTGEALEIVWDHPVGAVLRADETVEILATGRRLHLRVTPGVVCTTHECEVTLS
MGSSHHHHHHSSGLVPRGSHMGGGRSTETSSSSGGDGGATKKKVVVGTDAAFAPFEYMQKGKIVGFDVDLLDAVMKAAGLDYELKNIGWDPLFASLQSKEVDMGISGITITDERKQSYDFSDPYFEATQVILVKQGSPVKNALDLKGKTIGVQNATTGQEAAEKLFGKGPHIKKFETTVVAIMELLNGGVDAVITDNAVANEYVKNNPNKKLQVIEDPKNFASEYYGMIFPKNSELKAKVDEALKNVINSGKYTEIYKKWFGKEPKLDRLKQ
MGSSHHHHHHSSGLVPRGSHMRGVIRKLNDDGFGVLKGILVPFSAPGDEIIVERVERVKKRRVASQWKLVRSSPLRVGPRCKAFGKCGGCTLQHLNYDYQLEFKRKKLKRILGFEVEVVPSPKIFGHRNRIDLAITKDGIGFRERGKWWKIVDIDECPVFGKTSREAIERLKEFIEEEKISVWNIKKDEGFLRYMVLREGKFTEEVMVNFVTKEGNLPDPTNYFDFDSIYWSVNRSKSDVSYGDIERFWGKEFIRERLDDVDYLIHPNSFFQTNSYQAVNLVRKVSELVEGEKILDMYSGVGTFGIYLAKRGFNVKGFDSNEFAIEMARRNVEINNVDAEFEVASDREVSVKGFDTVIVDPPRAGLHPRLVKRLNREKPGVIVYVSCNPETFARDVKMLDYRIDEIVALDMFPHTPHVELVAKLV
MGSSHHHHHHSSGLVPRGSHMRLAGILLHVTSLPSPYGIGDLGKEAYRFLDFLKECGFSLWQVLPLNPTSLEAGNSPYSSNSLFAGNYVLIDPEELLEEDLIKERDLKRFPLGEALYEVVYEYKKELLEKAFKNFRRFELLEDFLKEHSYWLRDYALYMAIKEEEGKEWYEWDEELKRREKEALKRVLNKLKGRFYFHVFVQFVFFKQWEKLRRYARERGISIVGDLPMYPSYSSADVWTNPELFKLDGDLKPLFVAGVPPDFFSKTGQLWGNPVYNWEEHEKEGFRWWIRRVLHNLKLFDFLRLDHFRGFEAYWEVPYGEETAVNGRWVKAPGKTLFKKLLSYFPKNPFIAEDLGFITDEVRYLRETFKIPGSRVIEFAFYDKESEHLPHNVEENNVYYTSTHDLPPIRGWFENLGEESRKRLFEYLGREIKEEKVNEELIRLVLISRAKFAIIQMQDLLNLGNEARMNYPGRPFGNWRWRIKEDYTQKKEFIKKLLGIYGREV
MGSSHHHHHHSSGLVPRGSHMRVAMISMHTSPLQQPGTGDSGGMNVYILSTATELAKQGIEVDIYTRATRPSQGEIVRVAENLRVINIAAGPYEGLSKEELPTQLAAFTGGMLSFTRREKVTYDLIHSHYWLSGQVGWLLRDLWRIPLIHTAHTLAAVKNSYRDDSDTPESEARRICEQQLVDNADVLAVNTQEEMQDLMHHYDADPDRISVVSPGADVELYSPGNDRATERSRRELGIPLHTKVVAFVGRLQPFKGPQVLIKAVAALFDRDPDRNLRVIICGGPSGPNATPDTYRHMAEELGVEKRIRFLDPRPPSELVAVYRAADIVAVPSFNESFGLVAMEAQASGTPVIAARVGGLPIAVAEGETGLLVDGHSPHAWADALATLLDDDETRIRMGEDAVEHARTFSWAATAAQLSSLYNDAIANENVDGETHHG
MGSSHHHHHHSSGLVPRGSHMSKFSYLQNGKASTNGVPHANGHHQQHQNGHSNGVARNGGTATDTLPVAYQQKAATSGPFHMPRTEHVGYTYDTLQEIATYLLERTELRPKVGIICGSGLGTLAEQLTDVDSFDYETIPHFPVSTVAGHVGRLVFGYLAGVPVMCMQGRFHHYEGYPLAKCAMPVRVMHLIGCTHLIATNAAGGANPKYRVGDIMLIKDHINLMGFAGNNPLQGPNDERFGPRFFGMANTYDPKLNQQAKVIARQIGIENELREGVYTCLGGPNFETVAEVKMLSMLGVDAIGMSTVHEIITARHCGMTCFAFSLITNMCTMSYEEEEEHCHDSIVGVGKNREKTLGEFVSRIVKHIHYEAKK
MGSSHHHHHHSSGLVPRGSHMSLNILGYDVGGTKISTVVGNDSGEILSNVRMPTVKHLGKKRLIEEMITMGDAALKKAHVEKPDLIGIIFAGPVDRNRGVVIASPNIFGLSNFNIVEPIRDYYRTDTFLENDAQAAAIAERLFGSGRNVDNFVYMTLSTGIGGGIFINGKLYRGAHGMAGEIGHNVIMVNGPTCGCGRRGCLEALAGGKAIARRVIENLRAVRDSDFFSKLRPNEITAEKVFEGKKQGDMFSQLILEETIYYLAVGLVNIINTLDPELVIIGGGISKAGKDLFDPLNDAVKEEFKSMYRPFKIVPGLENGSDLAAISVPLYTEMELHGEGEKQY

Source: the DeepSol protein solubility set
